The text below walks through data of paper PMC12645917.

Assay [1] addresses TGEV S-Trimer (trimerized TGEV spike protein, 2P-stabilised, residues 1-1,388 with C-terminal GCN4 trimerization motif) (transmissible gastroenteritis virus (TGEV)). Briefly: SEC; purified protein on Superose 6 increase 10/300 GL, 20 mM HEPES pH 7.6, 150 mM NaCl; single peak compared with the 669 kDa standard. Background: Size exclusion chromatography separates by hydrodynamic size, large species first.

In assay [2] the target is PEDV S-Trimer (trimerized PEDV spike protein, 2P-stabilised, residues 1-1,319 with C-terminal GCN4 trimerization motif) (porcine epidemic diarrhea virus (PEDV)). The assay is described as above.

In general, stoichiometry N refers to a count of units in the complex or per binding partner. For the substance “TGEV S-Trimer (trimerized TGEV spike protein, 2P-stabilised, residues 1-1,388 with C-terminal GCN4 trimerization motif) (natural protein)”, the stoichiometry N in assay [1] stood at 3.

In assay [2], “PEDV S-Trimer (trimerized PEDV spike protein, 2P-stabilised, residues 1-1,319 with C-terminal GCN4 trimerization motif) (natural protein)” gave a stoichiometry N of 3.
